From paper PMC5724010 (The Journal of Biological Chemistry, 2017)

What was measured:
[1] = test system: CCCCCCC(=O)Oc1ccc2c(C)cc(=O)oc2c1; test: purified protein, by the assay type
Experimental: (§1) In detail, FplA was used at 1 nM in the reaction, and substrate (50 mM stock in 100% DMSO) dilutions (0–200 μM) and reactions were carried out in reaction buffer (50 mM Tris, pH 8.5, 50 mM NaCl, 0.025% BOG). All samples, including controls, contained equal concentrations of DMSO (0.4%). Reactions were run at 26 °C for 30 min with 3 s of shaking between continuous fluorescent monitoring (excitation = 360 nm, emission = 449 nm) every 2 min on a SpectraMax M5^e plate reader. Relative fluorescence units measured upon cleavage of substrate ester bonds and release of the acyl chain were converted to the concentration of product (4-methylumbeliferone; 4-Mu) created by establishing a standard curve using pure 4-Mu (Sigma-Aldrich).
(§2) The steady-state kinetic parameters for each substrate were determined using GraphPad Prism version 6 (GraphPad Software, La Jolla, CA) by fitting the initial rate data (n = 2) to the Michaelis–Menten equation, (Eq. 1) v=Vmax⁡[S]/(Km+[S]) to obtain the values reported in Fig. 2 and supplemental Fig. S3.

[2] = test system: CCCC(=O)Oc1ccc2c(C)cc(=O)oc2c1; test: purified protein, by the assay type; details: other: Fig. 4C/D, substrate of FplA(20–431), 1 nM enzyme, pH 8.5, 26 °C
Experimental: as §1, §2

[3] = test system: CCCCCCCCCCCCCCCC(=O)Oc1ccc2c(C)cc(=O)oc2c1; test: purified protein, by the assay type; details: other: Fig. 4C/D, substrate of FplA(20–431), 1 nM enzyme, pH 8.5, 26 °C
Experimental: as §1, §2

FplA(20–431) = FplA(20–431) (Fusobacterium nucleatum subsp. nucleatum, UniProt Q8R6F6); assay type: biochemical, F. nucleatum 25586
[4] = other: Fig. 4E, 4-MuH as substrate, construct FplA60-431, pH 8.5, 26.0 °C
[5] = other: Fig. 4E, 4-MuH as substrate, construct FplA20-350, pH 8.5, 26.0 °C
[6] = other: Fig. 4E, 4-MuH as substrate, construct FplA20-431, pH 8.5, 26.0 °C
[7] = other: Fig. 4E, 4-MuH as substrate, construct FplA60-350, pH 8.5, 26.0 °C

Sequence of FplA(20–431) (Q8R6F6 20-431 limits assumed): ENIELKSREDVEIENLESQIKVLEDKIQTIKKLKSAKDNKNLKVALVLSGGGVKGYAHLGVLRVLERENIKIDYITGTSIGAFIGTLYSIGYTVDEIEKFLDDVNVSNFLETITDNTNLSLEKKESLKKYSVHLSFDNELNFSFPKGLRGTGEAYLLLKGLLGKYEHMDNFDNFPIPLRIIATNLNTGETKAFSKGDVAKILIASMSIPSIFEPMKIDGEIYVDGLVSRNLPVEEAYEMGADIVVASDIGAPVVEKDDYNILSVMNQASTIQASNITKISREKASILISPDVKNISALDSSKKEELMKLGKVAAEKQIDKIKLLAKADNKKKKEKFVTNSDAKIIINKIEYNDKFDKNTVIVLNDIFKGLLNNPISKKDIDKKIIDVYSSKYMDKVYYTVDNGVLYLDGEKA

Compound “FplA60-431 (Fusobacterium nucleatum subsp. nucleatum ATCC 25586)” has a Km [1, 4] of 18.2 ± 7.4 µM, a kcat [1, 4] of 2.8 ± 0.3 s⁻¹ and a kcat/Km [1, 4] of 150000 ± 60000 M⁻¹ s⁻¹.
For “FplA20-350 (Fusobacterium nucleatum subsp. nucleatum ATCC 25586)”, the Km [1, 5] was 23.5 ± 6.5 µM and the kcat [1, 5] was 75 ± 6.2 s⁻¹.
For “FplA(20–431) (Fusobacterium nucleatum subsp. nucleatum ATCC 25586)”, the Km [2] was 500 µM, the Km ([1]; other: Fig. 4C/D, substrate of FplA(20–431), 1 nM enzyme, pH 8.5, 26 °C) was 19 µM and the Km [1, 6] was 19.6 ± 5.0 µM. The kcat [1, 6] was 55 ± 4.0 s⁻¹, the kcat/Km [1, 6] was 2.8e+06 ± 700000 M⁻¹ s⁻¹ and the Km [3] was 23 µM.
Compound “FplA60-350 (Fusobacterium nucleatum subsp. nucleatum ATCC 25586)” has a Km [1, 7] of 17.7 ± 8.4 µM, a kcat [1, 7] of 2.1 ± 0.3 s⁻¹ and a kcat/Km [1, 7] of 120000 ± 60000 M⁻¹ s⁻¹.
With `CCCCC/C=C\C/C=C\C/C=C\C/C=C\CCCC(=O)C(F)(F)F` [ATFMK, arachidonyl trifluoromethyl ketone] the “Inhibition of FplA, potency in words” value (FplA(20–431)) was “potent inhibitors”.
